Measurements taken from publication PMC3857192.

Target: PAC-1
Assay: flow cytometry on cells
Conditions: read off a plot
[1] = no treatment (CON), parent: est. 0
[2] = FITC-PAC-1 5 µg/ml, DTT + PT25-2, parent: est. 36
[3] = FITC-PAC-1 5 µg/ml, DTT, parent: est. 13
[4] = FITC-PAC-1 5 µg/ml, mAb PT25-2, parent: est. 26

Row | Substance | response (DTT + PT25-2, parent: est. 36) [NNFI] | response (DTT, parent: est. 12) [NNFI] | response (mAb PT25-2, parent: est. 26) [NNFI] | response [1] [NNFI] | response [2] [NNFI] | response [3] [NNFI] | response [4] [NNFI] | response (FITC-PAC-1 5 µg/ml, no treatment (CON), parent: est. 0) [NNFI]
1 | normal integrin αIIbβ3 (from UniProt P08514;P05106) αIIb:F992A; αIIb:F993A | 37 | 28 | 34 | 24 |  |  |  | 
2 | normal integrin αIIbβ3 (from UniProt P08514;P05106) αIIb:K321C; αIIb:F992A; αIIb:F993A; β3:E358C | 38 | 23 | 5.5 | 2.7 |  |  |  | 
3 | normal integrin αIIbβ3 (from UniProt P08514;P05106) αIIb:K321C; αIIb:F992A; αIIb:F993A; β3:R360C | 20 | 13 | 9.9 | 5.5 |  |  |  | 
4 | normal integrin αIIbβ3 (from UniProt P08514;P05106) αIIb:K321C; β3:E358C |  |  |  |  | 38 | 19 | 6.2 | 0.7
5 | normal integrin αIIbβ3 (from UniProt P08514;P05106) αIIb:K321C; β3:R360C |  |  |  |  | 28 | 14 | 9.7 | 
